Experiments:
[1] = target: bat RsSHC014 spike protein (Bat SARS-like coronavirus RsSHC014, UniProt U5WLK5); test: ELISA
SARS-CoV-2 RBD = SARS-CoV-2 RBD (SARS-CoV-2, UniProt P0DTC2); test: ELISA

B1: DH1047 IgG (antibody, V domains shown)
VH: QVQLVQSGAEVKKPGASVQVSCQASANTFTNHYIHWVRQAPGQGLEWMGIIYPTGGNTIYAQGFQGRVTMTRDTSLNTIYLELSSLRSEDTAVYYCARDVRVDDSWSGYDLLSGGTYFDYWGQGTLVTVSS
VL: not shown
[1]
  binding result: binds
SARS-CoV-2 RBD
  binding result: binds
